The record followed here is PMC8391806, “Enthalpy–Entropy Compensation in the Promiscuous Interaction of an Intrinsically Disordered Protein with Homologous Protein Partners” (Biomolecules, 2021).

Common to all, as to conditions: both partners purified
For test [1], the target named is T1, p38α kinase (residues 1–360 of human p38α) (human, UniProt Q16539 1-360).
T1 construct: source: expressed and purified as described previously [34,35]
The experiment in a line: NMR 15N CEST and CPMG relaxation dispersion + ITC; on-rate worked out from the off-rate of the NMR exchange analysis and the dissociation constant of ITC (ITC of ref. 35).

The target in test [2] is T2, JNK1 kinase (residues 1–364 of human JNK1 (isoform α1) with a C-terminal 6xHis tag) (human, UniProt P45983 1-364).
T2 construct: Human JNK1 (c-Jun N-terminal kinase 1), isoform α1, residues 1-364; source: expressed and purified as described previously [34,35]
T2 sequence (P45983 1-364): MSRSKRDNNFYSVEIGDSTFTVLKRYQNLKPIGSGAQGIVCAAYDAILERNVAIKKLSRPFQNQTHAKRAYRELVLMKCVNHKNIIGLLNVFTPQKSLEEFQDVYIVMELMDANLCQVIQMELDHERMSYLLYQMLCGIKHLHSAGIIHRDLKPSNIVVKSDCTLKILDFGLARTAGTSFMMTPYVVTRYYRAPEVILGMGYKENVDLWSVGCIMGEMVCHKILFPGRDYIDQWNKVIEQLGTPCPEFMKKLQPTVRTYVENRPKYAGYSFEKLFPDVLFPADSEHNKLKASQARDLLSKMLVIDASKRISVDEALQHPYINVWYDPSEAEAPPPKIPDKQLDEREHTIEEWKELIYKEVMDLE
The experiment in a line: NMR 15N CEST + ITC; on-rate worked out from the off-rate of CEST (5 °C) and the dissociation constant of ITC (20 °C).

In test [3] the target is T2, JNK1 kinase (residues 1–364 of human …). The test is described as follows: NMR 15N CEST; 250 μM 15N MKK4 with 10% molar ratio of JNK1; 5 °C; 50 mM HEPES pH 7.1, 150 mM NaCl, 2 mM DTT, 5% glycerol; two-site exchange model (ChemEx).
For test [4], the target named is T1, p38α kinase (residues 1–360 of human …). The experiment in a line: NMR 15N CEST and CPMG relaxation dispersion; 247 μM 15N MKK4 with 6% molar ratio of p38α; data acquired previously [35], analysed here with a two-site exchange model.
The target of test [5] is T2, JNK1 kinase (residues 1–364 of human …). The test is described as follows: ITC; MKK4 (570 μM, with thioredoxin and 6xHis tag) titrated into JNK1 (42 μM); 20 °C; 50 mM HEPES pH 8.2, 150 mM NaCl, 10% glycerol, 0.5 mM TCEP; model of n identical and independent sites. For orientation: In ITC the heat of successive injections is recorded.

T1 sequence (Q16539 whole entry, the tested form may be a part): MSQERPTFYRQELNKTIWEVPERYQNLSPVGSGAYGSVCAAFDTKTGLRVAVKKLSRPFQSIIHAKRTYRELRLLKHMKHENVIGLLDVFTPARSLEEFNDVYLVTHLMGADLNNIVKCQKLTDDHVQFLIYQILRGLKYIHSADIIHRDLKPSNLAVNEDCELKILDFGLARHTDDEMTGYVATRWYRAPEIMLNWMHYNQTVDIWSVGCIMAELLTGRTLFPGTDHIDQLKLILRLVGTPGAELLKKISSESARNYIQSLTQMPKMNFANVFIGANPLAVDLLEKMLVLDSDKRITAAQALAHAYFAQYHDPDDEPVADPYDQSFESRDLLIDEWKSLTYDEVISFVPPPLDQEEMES

B1: regulatory domain of MKK4 (residues 12–86 of human MKK4), 15N-labeled, for NMR (domain or fragment, UniProt P45985 12-86, looked up)
chain: SGGGSGSGTPGPVGSPAPGHPAVSSMQGKRKALKLNFANPPFKSTARFTLNPNPTGVQNPHIERLRTHSIESSGK
notes: Uniformly 15N-labeled for NMR; also called intrinsically disordered regulatory domain of MKK4; source: expressed and purified as described previously [34,35]
A word on the kon: it is the second-order rate constant of association. Usually koff stands for the rate constant with which the complex falls apart. Consider B1, for which, in test [1], the kon was 5.01e+07 M⁻¹ s⁻¹. Also, the on-rate constant (kon) in test [2] stood at 6.95e+07 M⁻¹ s⁻¹. Moreover, in test [3], the off-rate constant (koff) was 90 s⁻¹ and the “population of the bound state (10% molar ratio of JNK1)” value was found to be 8.7 ± 0.1%. Moreover, in test [4], the koff amounted to 205 s⁻¹ and the “population of the bound state (6% molar ratio of p38α)” value was found to be 6.2 ± 0.1%.

B2: regulatory domain of MKK4 (residues 12–86) with N-terminal thioredoxin and 6xHis tag, unlabeled, for ITC (domain or fragment, human, UniProt P45985 12-86, looked up)
chain: B1 chain
notes: source: expressed and purified as described previously [34,35]; size-exclusion chromatography in the ITC buffer; not shown: thioredoxin, N-terminal, kept; His6, N-terminal, kept
Usually Kd stands for the free concentration of one partner at which half of the binding sites on the other are occupied at equilibrium, for simple one-to-one binding. Read a low Kd as a tighter complex. For orientation: stoichiometry N means a count of units in the complex or per binding partner. With B2, in test [5], binding was characterised by a dissociation constant (Kd) of 1.3 µM and the “stoichiometry N” value was 1.
